The target of the assay is T1, 人CD99蛋白 (组织切片中表达) (human, UniProt P14209 23-185).
T1 construct: whole, on cells
T1 sequence (looked up): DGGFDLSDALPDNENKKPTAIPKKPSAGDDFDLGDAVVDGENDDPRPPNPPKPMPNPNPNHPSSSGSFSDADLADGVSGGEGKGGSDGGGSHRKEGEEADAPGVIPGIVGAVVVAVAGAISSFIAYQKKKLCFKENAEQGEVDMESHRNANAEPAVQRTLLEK
In words: IHC on 8 ovarian granulosa cell tumours and 8 primitive neuroectodermal tumours.

B1: 抗CD99蛋白单克隆抗体(10D2A10F9) (antibody, V domains shown)
VH: EVQLQQSGAELVKPGASVKLSCTASGFNIKDTYMHWVKQRPEQGLEWIGRIDPANGNTKYDPKFQGKATITADTSSNTAYLQLSSLTSEDTAVYYCGRRGFAYWGQGTLVTVSA
VL: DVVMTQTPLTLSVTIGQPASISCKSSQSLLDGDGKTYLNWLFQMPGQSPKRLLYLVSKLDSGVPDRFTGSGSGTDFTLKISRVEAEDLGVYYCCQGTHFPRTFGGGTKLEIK
notes: also called CGMCC NO.22316
B1: the binding result is “binds”.
